Measured values as given in IntAct's records for PubMed 24464040.

Columns and labels:
kap3_rat Prkar2b [1] = biological target: kap3_rat Prkar2b (UniProt P12369)
kap3_rat Prkar2b [2] = biological target: kap3_rat Prkar2b (UniProt P12369); remark: listed apart in the source

kap3_rat Prkar2b, sequence (P12369 whole entry): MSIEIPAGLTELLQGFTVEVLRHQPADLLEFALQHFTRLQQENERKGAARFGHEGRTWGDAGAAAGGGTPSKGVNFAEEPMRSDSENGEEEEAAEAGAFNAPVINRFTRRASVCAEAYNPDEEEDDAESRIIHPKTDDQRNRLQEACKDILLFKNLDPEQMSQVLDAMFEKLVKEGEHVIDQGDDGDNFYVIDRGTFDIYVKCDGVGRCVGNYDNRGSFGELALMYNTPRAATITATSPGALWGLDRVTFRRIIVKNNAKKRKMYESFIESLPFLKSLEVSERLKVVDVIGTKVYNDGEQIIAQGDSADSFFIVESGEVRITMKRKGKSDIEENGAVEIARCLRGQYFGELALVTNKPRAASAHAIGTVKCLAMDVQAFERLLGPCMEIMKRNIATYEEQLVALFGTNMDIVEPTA

| effect of a mutation on the interaction (kap3_rat Prkar2b [1]) | effect of a mutation on the interaction (kap3_rat Prkar2b [2]) | Substance |
| --- | --- | --- |
| increasing interaction | – | Leucine-rich repeat serine/threonine-protein kinase 2 (Homo sapiens), Q5S007 G2385R |
| – | decreasing interaction | Leucine-rich repeat serine/threonine-protein kinase 2 (Homo sapiens), Q5S007 R1441C |
